Test results published in patent US20110159569A1 (AJOU UNIVERSITY INDUSTRYACADEMIC COOPERATION FOUND, published 2011).

Target: the molecule itself
Test: size exclusion chromatography (HPLC, TSK G3000SW xL), self-association
Procedure: 0.02 ml of 5 to 20 μM protein was injected into a TSK G3000SW xL column (TosoHaas, Japan), and a phosphate buffered solution (50 mM sodium phosphate/150 mM NaCl, pH7.4) flowed at a rate of 0.7 ml/min. In this case, the chromatogram was obtained by measuring absorbance values at 280 nm.

Row | Protein | binding result
1 | 3D8 VH protein (other, Isolated heavy chain variable domain of the anti-nucleic acid antibody 3D8, purified as a single domain; also called VH chain; VH domain) VH: AREVQLQQSGPELVKPGASVKMSCKASGYTFTSYVMHWVKQKPGQGLEWIGYINPYNDGTKYNEKFKGKATLTSDKSSSTAYMELSSLTSEDSAVYYCARGAYKRGYAMDYWGQGTSVTVSS | no binding (tested: 5 to 20 µM)
2 | 3D8 VL protein (other, Isolated light chain variable domain of the anti-nucleic acid antibody 3D8, purified as a single domain and immobilized on a CM5 chip for SPR; also called VL chain; VL domain) VL: DLVMSQSPSSLAVSAGEKVTMSCKSSQSLFNSRTRKNYLAWYQQKPGQSPKLLIYWASTRESGVPDRFTGSGSGTDFTLTISSVQAEDLAVYYCKQSYYHMYTFGSGTKLEIK | no binding (tested: 5 to 20 µM)
